According to patent US20180311359A1 (TRACON PHARMACEUTICALS, published 2018):

How the values were obtained:
CD105 (endoglin) [1] = biological target: T1, CD105 (endoglin) (UniProt P17813 26-586, limits assumed); experiment: CD105 binding ELISA; F03 (pH 4.0, 20 mM acetate, 240 mM sorbitol, 25 mg/ml), 5 C, initial
T1 construct: Soluble protein captured on the plate
T1 sequence (looked up): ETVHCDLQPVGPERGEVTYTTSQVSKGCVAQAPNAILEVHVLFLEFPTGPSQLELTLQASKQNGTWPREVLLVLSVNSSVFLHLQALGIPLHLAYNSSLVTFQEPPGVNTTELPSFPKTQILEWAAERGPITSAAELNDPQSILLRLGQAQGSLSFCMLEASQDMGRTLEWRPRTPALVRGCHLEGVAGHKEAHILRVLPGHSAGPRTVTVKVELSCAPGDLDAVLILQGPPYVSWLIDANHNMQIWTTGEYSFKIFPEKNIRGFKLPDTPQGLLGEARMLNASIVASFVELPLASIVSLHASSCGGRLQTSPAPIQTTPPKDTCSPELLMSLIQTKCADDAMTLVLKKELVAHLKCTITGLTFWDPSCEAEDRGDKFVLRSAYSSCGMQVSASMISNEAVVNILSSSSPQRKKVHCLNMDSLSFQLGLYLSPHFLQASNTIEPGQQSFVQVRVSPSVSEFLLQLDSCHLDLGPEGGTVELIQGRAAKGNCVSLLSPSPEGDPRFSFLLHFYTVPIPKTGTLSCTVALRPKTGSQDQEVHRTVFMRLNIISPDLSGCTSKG

CD105 (endoglin) [2] = biological target: T1, CD105 (endoglin); experiment: CD105 binding ELISA; F05 (pH 4.0, 20 mM acetate, 240 mM trehalose, 50 mg/ml), 5 C, initial
CD105 (endoglin) [3] = biological target: T1, CD105 (endoglin); experiment: CD105 binding ELISA; F02 (pH 5.5, 20 mM histidine, 240 mM sorbitol, 25 mg/ml), 5 C, initial
CD105 (endoglin) [4] = biological target: T1, CD105 (endoglin); experiment: CD105 binding ELISA; F03 (pH 4.0, 20 mM acetate, 240 mM sorbitol, 25 mg/ml), 5 C, 12 months
CD105 (endoglin) [5] = biological target: T1, CD105 (endoglin); experiment: CD105 binding ELISA; F07 (pH 4.0, 20 mM acetate, 240 mM trehalose, 100 mg/ml), 5 C, initial
CD105 (endoglin) [6] = biological target: T1, CD105 (endoglin); experiment: CD105 binding ELISA; F01 (pH 5.5, 20 mM histidine, 240 mM trehalose, 25 mg/ml), 5 C, initial
CD105 (endoglin) [7] = biological target: T1, CD105 (endoglin); experiment: CD105 binding ELISA; F02 (pH 5.5, 20 mM histidine, 240 mM sorbitol, 25 mg/ml), 5 C, 6 months
CD105 (endoglin) [8] = biological target: T1, CD105 (endoglin); experiment: CD105 binding ELISA; F04 (pH 5.5, 20 mM histidine, 240 mM trehalose, 50 mg/ml), 5 C, initial
CD105 (endoglin) [9] = biological target: T1, CD105 (endoglin); experiment: CD105 binding ELISA; F05 (pH 4.0, 20 mM acetate, 240 mM trehalose, 50 mg/ml), 5 C, 12 months
CD105 (endoglin) [10] = biological target: T1, CD105 (endoglin); experiment: CD105 binding ELISA; F01 (pH 5.5, 20 mM histidine, 240 mM trehalose, 25 mg/ml), 5 C, 6 months
CD105 (endoglin) [11] = biological target: T1, CD105 (endoglin); experiment: CD105 binding ELISA; F02 (pH 5.5, 20 mM histidine, 240 mM sorbitol, 25 mg/ml), 5 C, 12 months
CD105 (endoglin) [12] = biological target: T1, CD105 (endoglin); experiment: CD105 binding ELISA; F04 (pH 5.5, 20 mM histidine, 240 mM trehalose, 50 mg/ml), 5 C, 6 months
CD105 (endoglin) [13] = biological target: T1, CD105 (endoglin); experiment: CD105 binding ELISA; F06 (pH 5.5, 20 mM histidine, 240 mM trehalose, 100 mg/ml), 5 C, initial
CD105 (endoglin) [14] = biological target: T1, CD105 (endoglin); experiment: CD105 binding ELISA; F07 (pH 4.0, 20 mM acetate, 240 mM trehalose, 100 mg/ml), 5 C, 12 months
CD105 (endoglin) [15] = biological target: T1, CD105 (endoglin); experiment: CD105 binding ELISA; F01 (pH 5.5, 20 mM histidine, 240 mM trehalose, 25 mg/ml), 5 C, 12 months
CD105 (endoglin) [16] = biological target: T1, CD105 (endoglin); experiment: CD105 binding ELISA; F04 (pH 5.5, 20 mM histidine, 240 mM trehalose, 50 mg/ml), 5 C, 12 months
CD105 (endoglin) [17] = biological target: T1, CD105 (endoglin); experiment: CD105 binding ELISA; F06 (pH 5.5, 20 mM histidine, 240 mM trehalose, 100 mg/ml), 5 C, 6 months
CD105 (endoglin) [18] = biological target: T1, CD105 (endoglin); experiment: CD105 binding ELISA; F06 (pH 5.5, 20 mM histidine, 240 mM trehalose, 100 mg/ml), 5 C, 12 months
CD105 (endoglin) [19] = biological target: T1, CD105 (endoglin); experiment: CD105 binding ELISA; TRC105 4 mg/mL in 17 mM phosphate, 145 mM NaCl, pH 7.2 (Lot FIN-0536), 2-8 C, initial
CD105 (endoglin) [20] = biological target: T1, CD105 (endoglin); experiment: CD105 binding ELISA; TRC105 4 mg/mL in 17 mM phosphate, 145 mM NaCl, pH 7.2 (Lot FIN-0536), 2-8 C, 6 months
CD105 (endoglin) [21] = biological target: T1, CD105 (endoglin); experiment: CD105 binding ELISA; TRC105 4 mg/mL in 17 mM phosphate, 145 mM NaCl, pH 7.2 (Lot FIN-0536), 2-8 C, 9 months
CD105 (endoglin) [22] = biological target: T1, CD105 (endoglin); experiment: CD105 binding ELISA; TRC105 4 mg/mL in 17 mM phosphate, 145 mM NaCl, pH 7.2 (Lot FIN-0536), 2-8 C, 12 months
CD105 (endoglin) [23] = biological target: T1, CD105 (endoglin); experiment: CD105 binding ELISA; TRC105 4 mg/mL in 17 mM phosphate, 145 mM NaCl, pH 7.2 (Lot FIN-0536), 2-8 C, 18 months
CD105 (endoglin) [24] = biological target: T1, CD105 (endoglin); experiment: CD105 binding ELISA; TRC105 4 mg/mL in 17 mM phosphate, 145 mM NaCl, pH 7.2 (Lot FIN-0536), 2-8 C, 24 months
CD105 (endoglin) [25] = biological target: T1, CD105 (endoglin); experiment: CD105 binding ELISA; TRC105 4 mg/mL in 17 mM phosphate, 145 mM NaCl, pH 7.2 (Lot FIN-0536), 2-8 C, 30 months
CD105 (endoglin) [26] = biological target: T1, CD105 (endoglin); experiment: CD105 binding ELISA; TRC105 4 mg/mL in 17 mM phosphate, 145 mM NaCl, pH 7.2 (Lot FIN-0536), 2-8 C, 36 months
CD105 (endoglin) [27] = biological target: T1, CD105 (endoglin); experiment: CD105 binding ELISA; TRC105 4 mg/mL in 17 mM phosphate, 145 mM NaCl, pH 7.2 (Lot FIN-0536), 25 C/60% RH, 1 month
CD105 (endoglin) [28] = biological target: T1, CD105 (endoglin); experiment: CD105 binding ELISA; TRC105 4 mg/mL in 17 mM phosphate, 145 mM NaCl, pH 7.2 (Lot FIN-0536), 25 C/60% RH study, initial (same initial value as in Table 18)

B1: TRC105 (an anti-CD105 antibody) (antibody, human IgG1, kappa, V domains shown)
VH: EVKLEESGGGLVQPGGSMKLSCAASGFTFSDAWMDWVRQSPEKGLEWVAEIRSKASNHATYYAESVKGRFTISRDDSKSSVYLQMNSLRAEDTGIYYCTRWRRFFDSWGQGTTLTVSS
VL: QIVLSQSPAILSASPGEKVTMTCRASSSVSYMHWYQQKPGSSPKPWIYATSNLASGVPVRFSGSGSGTSYSLTISRVEAEDAATYYCQQWSSNPLTFGAGTKLELKR
notes: each chain is built here as variable plus constant region; The same antibody was tested in different formulations and after different storage times; also called Lot FIN-0536
Percent Relative CD105 Binding Potency (CD105 (endoglin) [1]): 124 % relative to reference standard | Percent Relative CD105 Binding Potency (CD105 (endoglin) [2]): 179 % relative to reference standard | Percent Relative CD105 Binding Potency (CD105 (endoglin) [3]): 90 % relative to reference standard | Percent Relative CD105 Binding Potency (CD105 (endoglin) [4]): 77 % relative to reference standard | Percent Relative CD105 Binding Potency (CD105 (endoglin) [5]): 100 % relative to reference standard | Percent Relative CD105 Binding Potency (CD105 (endoglin) [6]): 101 % relative to reference standard | Percent Relative CD105 Binding Potency (CD105 (endoglin) [7]): 90 % relative to reference standard | Percent Relative CD105 Binding Potency (CD105 (endoglin) [8]): 123 % relative to reference standard | Percent Relative CD105 Binding Potency (CD105 (endoglin) [9]): 96 % relative to reference standard | Percent Relative CD105 Binding Potency (CD105 (endoglin) [10]): 94 % relative to reference standard | Percent Relative CD105 Binding Potency (CD105 (endoglin) [11]): 69 % relative to reference standard | Percent Relative CD105 Binding Potency (CD105 (endoglin) [12]): 97 % relative to reference standard | Percent Relative CD105 Binding Potency (CD105 (endoglin) [13]): 93 % relative to reference standard | Percent Relative CD105 Binding Potency (CD105 (endoglin) [14]): 86 % relative to reference standard | Percent Relative CD105 Binding Potency (CD105 (endoglin) [15]): 68 % relative to reference standard | Percent Relative CD105 Binding Potency (CD105 (endoglin) [16]): 74 % relative to reference standard | Percent Relative CD105 Binding Potency (CD105 (endoglin) [17]): 95 % relative to reference standard | Percent Relative CD105 Binding Potency (CD105 (endoglin) [18]): 115 % relative to reference standard | CD105 Binding by ELISA (binding activity relative to reference standard) (CD105 (endoglin) [19]): 88 % relative to reference standard | CD105 Binding by ELISA (binding activity relative to reference standard) (CD105 (endoglin) [20]): 110 % relative to reference standard | CD105 Binding by ELISA (binding activity relative to reference standard) (CD105 (endoglin) [21]): 104 % relative to reference standard | CD105 Binding by ELISA (binding activity relative to reference standard) (CD105 (endoglin) [22]): 91 % relative to reference standard | CD105 Binding by ELISA (binding activity relative to reference standard) (CD105 (endoglin) [23]): 88 % relative to reference standard | CD105 Binding by ELISA (binding activity relative to reference standard) (CD105 (endoglin) [24]): 136 % relative to reference standard | CD105 Binding by ELISA (binding activity relative to reference standard) (CD105 (endoglin) [25]): 88 % relative to reference standard | CD105 Binding by ELISA (binding activity relative to reference standard) (CD105 (endoglin) [26]): 105 % relative to reference standard | CD105 Binding by ELISA (binding activity relative to reference standard) (CD105 (endoglin) [27]): 91 % relative to reference standard | CD105 Binding by ELISA (binding activity relative to reference standard) (CD105 (endoglin) [28]): 88 % relative to reference standard
